Measurements reported in PMC3572051, “The Budding Yeast Cdc48^Shp1 Complex Promotes Cell Cycle Progression by Positive Regulation of Protein Phosphatase 1 (Glc7)” (PLoS ONE, 2013).

Biological target: T1, Shp1^3HA (S. cerevisiae, UniProt P34223 1-423)
T1 construct: Shp1 (Ubx1), S. cerevisiae; source: S. cerevisiae DF5, chromosomal fusion SHP1^3HA::klTRP1, endogenous expression level, in lysate
T1 sequence (looked up): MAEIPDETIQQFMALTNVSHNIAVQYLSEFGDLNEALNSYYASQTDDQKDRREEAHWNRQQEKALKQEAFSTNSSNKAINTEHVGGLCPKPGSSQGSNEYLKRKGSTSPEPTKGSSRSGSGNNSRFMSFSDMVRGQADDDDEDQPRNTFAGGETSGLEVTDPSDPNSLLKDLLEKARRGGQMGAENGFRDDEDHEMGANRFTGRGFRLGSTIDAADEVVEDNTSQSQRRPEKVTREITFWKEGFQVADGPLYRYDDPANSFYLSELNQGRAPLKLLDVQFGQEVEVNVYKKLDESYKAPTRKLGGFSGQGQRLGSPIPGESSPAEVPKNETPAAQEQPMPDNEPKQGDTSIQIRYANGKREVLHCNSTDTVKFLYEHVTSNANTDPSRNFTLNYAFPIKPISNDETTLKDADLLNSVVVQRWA
Assay: co-IP; yeast lysates; immunoprecipitation with pre-coupled anti-HA antibody (overnight, 4°C), IP buffer 50 mM Tris/HCl pH 7.5, 100 mM KCl, 5 mM MgCl2, NP-40, 10% glycerol; Western blot; for Glc8^3HA lysates of asynchronous or α-factor-arrested wild-type and shp1-7 cells
Settings: partners not purified

- fold difference of the Glc7 signal in the IP lane (relative to the heavy chain signal) against the negative control: > 8 fold
B1: Glc7^3myc (enzyme, S. cerevisiae, UniProt P32598 1-312, looked up)
chain: MDSQPVDVDNIIDRLLEVRGSKPGQQVDLEENEIRYLCSKARSIFIKQPILLELEAPIKICGDIHGQYYDLLRLFEYGGFPPESNYLFLGDYVDRGKQSLETICLLLAYKIKYPENFFILRGNHECASINRIYGFYDECKRRYNIKLWKTFTDCFNCLPIAAIIDEKIFCMHGGLSPDLNSMEQIRRVMRPTDIPDVGLLCDLLWSDPDKDIVGWSENDRGVSFTFGPDVVNRFLQKQDMELICRAHQVVEDGYEFFSKRQLVTLFSAPNYCGEFDNAGAMMSVDESLLCSFQILKPAQKSLPRQAGGRKKK
notes: Glc7, catalytic subunit of protein phosphatase 1, S. cerevisiae; carboxyl-terminally tagged at its authentic chromosomal locus; also called PP1 catalytic subunit; source: S. cerevisiae DF5, expressed from the chromosomal GLC7 locus as sole source of Glc7, in lysate; not shown: 3myc, C-terminal, kept
